In US6469153 (TRUSTEES OF COLUMBIA UNIVERSITY IN THE CITY OF NEW YORK, dated 2002):
Read-outs that look alike come from different tables or passages of the source.

Legend:
[1] = target: Envelope protein (TM) on amphotropic N2 virus (amphotropic murine retrovirus); test: cell-based or functional assay
[2] = target: Envelope protein (TM) on amphotropic N2 virus (amphotropic murine retrovirus); test: cell-based or functional assay; remark: listed apart in the source
[3] = target: Envelope protein (TM in the context of the whole envelope protein) on intact ecotropic N2 virus (Moloney murine leukemia virus) (UniProt P03385); test: cell-based or functional assay
[4] = target: T1, Envelope protein (TM in the context of the whole envelope protein) on intact ecotropic N2 virus (Moloney murine leukemia virus, UniProt P03385 34-649, limits assumed); test: cell-based or functional assay
T1 sequence (looked up): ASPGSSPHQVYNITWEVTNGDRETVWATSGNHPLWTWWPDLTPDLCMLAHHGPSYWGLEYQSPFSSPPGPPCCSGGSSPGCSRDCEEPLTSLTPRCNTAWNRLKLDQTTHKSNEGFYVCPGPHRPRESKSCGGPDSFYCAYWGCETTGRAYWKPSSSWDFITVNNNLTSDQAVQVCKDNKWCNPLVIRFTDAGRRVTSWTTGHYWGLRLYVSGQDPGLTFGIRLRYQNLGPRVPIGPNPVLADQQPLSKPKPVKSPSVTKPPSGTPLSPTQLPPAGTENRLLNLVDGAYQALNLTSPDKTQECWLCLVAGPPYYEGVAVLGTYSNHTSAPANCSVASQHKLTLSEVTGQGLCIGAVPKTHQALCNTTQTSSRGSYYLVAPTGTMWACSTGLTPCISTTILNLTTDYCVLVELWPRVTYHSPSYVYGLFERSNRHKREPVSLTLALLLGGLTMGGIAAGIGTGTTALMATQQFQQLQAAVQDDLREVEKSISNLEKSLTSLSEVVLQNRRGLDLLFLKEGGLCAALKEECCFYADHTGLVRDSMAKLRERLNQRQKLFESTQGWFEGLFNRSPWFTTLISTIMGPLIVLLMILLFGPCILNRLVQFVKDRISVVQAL

[5] = target: T1, Envelope protein (TM in the context of …); test: depletion of N2 virus by GST-EIP-1 beads; titer of remaining virus
Description: EIP-1 to EIP-5 have been examined using this assay to directly measure the binding of EIPs to the intact virus. In this binding assay, virus is mixed with GST-EIP-agarose beads and incubated for 2 hours. After incubation, the mixtures are centrifuged, and the supernatants are used to transduce fresh NIH3T3 cells. After two days, cells are split into G418-containing medium. Ten to twelve days later, colonies are counted. If the virus binds to EIPs, virus is retained on agarose beads leading to a reduction in virus titer in supernatant. […] In control samples, virus was incubated with GST-agarose beads or beads alone, and no change in virus titer was observed (Table 2).
Whether EIP-1 could interact with TM on the native virion particle was tested. GST-EIP-1 beads were incubated with preparations of a virus vector (N2) containing the neoR gene and pelleted, and the titer of the remaining virus was determined to test for depletion of infectivity from the stock. Whereas beads alone, beads containing GST, or beads with control GST fusions had no effect on the titer, beads with GST-EIP-1 could consistently reduce the titer approximately 4-fold.

GST-EIP-1 (from UniProt Q9JI44 1-468) was tested, and the increase of titer of amphotropic viruses titered on human cells [1] was 5 to 8 fold.

In the case of GST-EIP-1A (from UniProt Q9JI44 1-468), the Fold Increase (amphotropic N2 virus on NIH3T3 cells) [1] is reported as 7 fold, the Neo^r Colonies, 1:1 (amphotropic N2 virus on NIH3T3 cells) [1] is reported as 854 colonies and the Neo^r Colonies, 1:5 (amphotropic N2 virus on NIH3T3 cells) [1] is reported as 136 colonies. It also gave a Fold Increase (amphotropic N2 virus on NIH3T3 cells) [2] of 8 fold, a Neo^r Colonies, Amphotropic N2 virus 5 µl (1:10), NIH3T3 cells [2] of 854 colonies and a Neo^r Colonies, Amphotropic N2 virus 5 µl (1:25), NIH3T3 cells [2] of 136 colonies.

In the case of GST-EIP-1B (from UniProt Q9JI44 1-468), the Fold Increase (ecotropic N2 virus on NIH3T3 cells) [3] is reported as 30 fold, the Neo^r Colonies, 1:1 (ecotropic N2 virus on NIH3T3 cells) [3] is reported as > 1000 colonies and the Neo^r Colonies, 1:5 (ecotropic N2 virus on NIH3T3 cells) [3] is reported as 353 colonies. It also gave a Fold Increase (amphotropic N2 virus on Hela cells) [1] of 6 fold, a Fold Increase (amphotropic N2 virus on NIH3T3 cells) [1] of 5 fold and a Neo^r Colonies, 1:1 (amphotropic N2 virus on NIH3T3 cells) [1] of 403 colonies. It also gave a Neo^r Colonies, 1:5 (amphotropic N2 virus on NIH3T3 cells) [1] of 102 colonies, a Neo^r Colonies, Amphotropic N2 virus 5 µl (1:25), Hela cells [1] of 594 colonies and a Fold Increase (amphotropic N2 virus on NIH3T3 cells) [2] of 6 fold. For the same molecule, the Neo^r Colonies, Amphotropic N2 virus 5 µl (1:10), NIH3T3 cells [2] was 403 colonies and the Neo^r Colonies, Amphotropic N2 virus 5 µl (1:25), NIH3T3 cells [2] was 102 colonies.

GST-EIP-2 (from UniProt P08515 1-218) was tested, and the CFU/2 ul virus (Neo^r colonies after incubation of virus with purified protein, 1 µg/ml, 37° C., 1 h) [3] was 24 CFU, the CFU/10 ul virus (Neo^r colonies after incubation of virus with purified protein, 1 µg/ml, 37° C., 1 h) [3] was 69 CFU and the Fold Increase (ecotropic N2 virus on NIH3T3 cells) [3] was 1 fold. It also gave a Neo^r Colonies, 1:1 (ecotropic N2 virus on NIH3T3 cells) [3] of 69 colonies, a Neo^r Colonies, 1:5 (ecotropic N2 virus on NIH3T3 cells) [3] of 24 colonies and a Ratio (enhancement of virus infectivity) [3] of 1.

B1: GST-EIP-1 (other)
chain: MATGADVRDILELGGPEGDAASGTISKKDIINPDKKKSKKSSETLTFKRPEGMHREVYALLYSDKKDAPPLLPSDTGRGHRTVKAKLGSKKVRPWKWMPFTNPARKDGAMFFHWRRAAEEGKDYPFARFNKTVQVPVYSEQEYQLYLHDDAWTKAETDHLFDLSRRFDLRFVVIHDRYDHQQFKKRSVEDLKERYYHICAKLANVRAVPGTDLKIPVFDAGHERRRKEQLERLYNRTPEQVAEEEYLLQELRKIEARKKEEKRSQDLQKLITAADTTAEQRRTERKAPKKKLPQKKEAEKPAVPETAGIKFPDFKSAGVTLRSQRMKLPSSVGQKKIKALEQMLLELGVELSPTPTEELVHMFNELRSDLVLLYELKQACANCEYELQMLRHRHEALARAGVLGAPAAAAVGPTPASAEPTVSESGLGLDPTKDTIIDVVGAPLTPNSRKRRESASSSSSVKKAKKP
notes: It was used on glutathione agarose beads or eluted as soluble protein; also called EIP-1 fused with glutathione S-transferase; not shown: glutathione S-transferase (GST)
B1 was tested, and the “Ratio (enhancement of virus infectivity)” value [4] was 30 ratio and the “fold reduction of the titer of remaining virus” value [5] was ~4 fold.
